Assay results published in article PMC5335332, “Arsenite oxidation regulator AioR regulates bacterial chemotaxis towards arsenite in Agrobacterium tumefaciens GW4” (Scientific Reports, 2017).

What was measured:
[1] = target: T1, Mcp (sensing domain; truncated Mcp); experiment: intrinsic tryptophan fluorescence quenching at […] nm; type: binding, Agrobacterium tumefaciens; conditions: 1.0 μM protein, 0-25 μM As(III), 1 h, room temperature
T1 construct: predicted extracellular sensing domain, aa 43-325, EcoRI-HindIII in pET-28a(+), His-tagged, E. coli, Ni-NTA; one of 20 mcp genes in the genome; Trp residues W44, W166, W254, W308

[2] = test system: T2, AioR DNA-binding domain (HTH) (Agrobacterium tumefaciens GW4), ORF:ca4d298f; experiment: EMSA; conditions: 20 mM Tris-HCl pH 7.0, 50 mM NaCl, 1 mM DTT, 10 mM MgCl2, 100 ug/mL BSA; 28 C, 30 min; 6% native PAGE in 1x TGE
T2 sequence: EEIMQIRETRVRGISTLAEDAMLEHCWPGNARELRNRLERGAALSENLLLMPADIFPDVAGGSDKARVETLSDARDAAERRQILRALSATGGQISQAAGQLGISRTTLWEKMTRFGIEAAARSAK

[3] = test system: T2, AioR DNA-binding domain (HTH) (Agrobacterium tumefaciens GW4), ORF:ca4d298f; experiment: competition; conditions: 20 mM Tris-HCl pH 7.0, 50 mM NaCl, 1 mM DTT, 10 mM MgCl2, 100 ug/mL BSA; 28 C, 30 min; 6% native PAGE in 1x TGE
[4] = test system: T2, AioR DNA-binding domain (HTH) (Agrobacterium tumefaciens GW4), ORF:ca4d298f; experiment: DNase I footprinting; conditions: 20 mM Tris-HCl pH 7.0, 50 mM NaCl, 1 mM DTT, 10 mM MgCl2, 100 ug/mL BSA; 28 C, 30 min; 6% native PAGE in 1x TGE

Compound	Kd [1] [µM]	binding [2]	binding [3]	binding [4]
O[As](O)O [As(III)]	11 ± 3.02	–	–	–
TACGGAAAGCACAATACGTGTGCGAATGAAACCAGTTTGCAGTGTTCGGATTTCCGAACATCATTGAAATAAATGCCGTTATTTTGTGCAGTATAGATTGATTAATATGTTTTATTTATAATATAAATTTTTGCTACATAGCAGTATTCGGATTTAATCGGAGCCAGCATTTGCTTATTGCTACATATATAAACACCTATAAGCTCTAATATGATTCTTTTATGACAATAATATCGAAAAATTAACTATGCGATCCCAG (double strand) [mcp regulatory region, 259 bp]	–	binds	binds	binds
TACGGAAAGCACAATACGTGTGCGAATGAAACCAGTTTGCAGTTGTCGGATTTCCGCTTATCATTGAAATAAATGCCGTTATTTTGTGCAGTATAGATTGATTAATATGTTTTATTTATAATATAAATTTTTGCTACATAGCAGTATTCGGATTTAATCGGAGCCAGCATTTGCTTATTGCTACATATATAAACACCTATAAGCTCTAATATGATTCTTTTATGACAATAATATCGAAAAATTAACTATGCGATCCCAG (double strand) [mutant mcp regulatory region]	–	no binding	–	–
TTTCACGCACGACACTCTGGGAGAAGATGACGCGTTTCGGAATAGAAGCAGCCGCACGTTCGGCCAAATGAACAACGGCGGCGAGACGCTGTTCGGAAAAGCGAACGGGCAACTGGCCATCAAACGGGAAAATATCTATATTTCAGTATTTTAGGAATTGGCATAGCAAT (double strand) [aioBA regulatory region, 170 bp]	–	binds	–	–
